From patent US20060140870A1, “Method for assessing tumor response to cancer treatment” (General Electric Company, priority 2004, published 2006)

Experiment: Relaxivity (T1) of the contrast agent as a measure of molecular conformation
Format: physicochemical
Settings: low for an elongated conformation, high for a globular (folded) one

| Substance | relaxivity |
| --- | --- |
| Polylysine-Gd-DTPA [Gd- DTPA polylysine] | about 8 sec.−1 mM−1 |
| albumen | about 15 sec.−1 mM−1 |
